Test results from US20230189818A1, “RNA-BASED CONTROL OF BOTRYTIS” (priority 2021, published 2023).

B1: GS2640: dsRNA trigger targeting B. cinerea Bcsec15 (XM_024692064.1); trigger SEQ ID NO 50, RNA 54, reverse complement 58 (nucleic acid, listed as Botrytis cinerea)
sense: AAAUUCAGCACAGAUUUUCAACAGAUUGUGUCUACCGAUGAAUACAUGCCUAUGCCUGUCAAUAGCGAAGAAGACUUUGAUAAAAUCAUUCAAGUCAGUUGGUAUGUUCCGGACAGACCGAAAGAAGAAUACACAUUCCCCGGUGUAUUACCAUUCUCCCAGAUGUACCCAAUGUGCUGUAUAGAUAUCAGAAAUUUCCUGAAUCGAUUCUACUUCAUAAUGGAUGAUCAUUUUCAACAGCCAAACAUUAUUGAUGAGACACUUAAGAAGUCGAUAGAUGAGCUUCUGUCUGAGGAUAUUU
antisense: AAAUAUCCUCAGACAGAAGCUCAUCUAUCGACUUCUUAAGUGUCUCAUCAAUAAUGUUUGGCUGUUGAAAAUGAUCAUCCAUUAUGAAGUAGAAUCGAUUCAGGAAAUUUCUGAUAUCUAUACAGCACAUUGGGUACAUCUGGGAGAAUGGUAAUACACCGGGGAAUGUGUAUUCUUCUUUCGGUCUGUCCGGAACAUACCAACUGACUUGAAUGAUUUUAUCAAAGUCUUCUUCGCUAUUGACAGGCAUAGGCAUGUAUUCAUCGGUAGACACAAUCUGUUGAAAAUCUGUGCUGAAUUU
B2: GS2589: dsRNA trigger targeting B. cinerea Bcsec15 (XM_024692064.1); trigger SEQ ID NO 49, RNA 53, reverse complement 57 (nucleic acid, listed as Botrytis cinerea)
sense: GGUAUGUUCCGGACAGACCGAAAGAAGAAUACACAUUCCCCGGUGUAUUACCAUUCUCCCAGAUGUACCCAAUGUGCUGUAUAGAUAUCAGAAAUUUCCUGAAUCGAUUCUACUUCAUAAUGGAUGAUCAUUUUCAACAGCCAAACAUUAUUGAUGAGACACUUAAGAAGUCGAUAGAUGAGCUUCUGUCUGAGGAUAUUU
antisense: AAAUAUCCUCAGACAGAAGCUCAUCUAUCGACUUCUUAAGUGUCUCAUCAAUAAUGUUUGGCUGUUGAAAAUGAUCAUCCAUUAUGAAGUAGAAUCGAUUCAGGAAAUUUCUGAUAUCUAUACAGCACAUUGGGUACAUCUGGGAGAAUGGUAAUACACCGGGGAAUGUGUAUUCUUCUUUCGGUCUGUCCGGAACAUACC
B3: GS2291: dsRNA trigger targeting B. cinerea Bcgpi2 (XM_024693470.1); trigger SEQ ID NO 22, RNA 34, reverse complement 46 (nucleic acid, listed as Botrytis cinerea)
sense: CUGUCAACCAAUUGCGCAUGACAAAUGGAGAUGCUGGACGAUUAAGAAGUAGAGGAAGACAUGCUGAUAGAACGAAGAGUAGCACCAGAAGACGGAAAACUACUUGGAAAAAGCUGCUAUGGGUGAAGCAAUCAUAUCCAGACAAUUACACGGAUCAAGAUACAUUUCUCGAACAUCUGCAGCGAAAUCCACGUCUUCAGCCUUACGACUUUUGGCCAUUGGUAGCAGAUUCCACGGUUAUAGUACAACACGUUUGUUCGGUCAUUAUAUUCAUUGUUUCUUUCGUUGGGAUAUAUGAUAAACAUGUCUCGCCAGUUUCUGUGGUUGGCUGGGGCUCUAUUGCUACCUUUUUGGGGUGGGUGUUAUGGGAUUUAUGGGUGGGACAGGAAGAAAGUACUCGUCCAGCAUUUCCACCACCGCAGCCUUUCUCUCACAGUGUAUCUGCAACAAGUUCAACACCAAACCUAUUGGCAACAGCUGCAAGUGGGCCAAGGCAAUCCUACUCGAUGUCAACAACAUCUCUUCAAUCUACAGCCUCGAAUCUAACCCAACCACCUCCAAUACGACCGGUUUAUACACCACAUAAUU
antisense: AAUUAUGUGGUGUAUAAACCGGUCGUAUUGGAGGUGGUUGGGUUAGAUUCGAGGCUGUAGAUUGAAGAGAUGUUGUUGACAUCGAGUAGGAUUGCCUUGGCCCACUUGCAGCUGUUGCCAAUAGGUUUGGUGUUGAACUUGUUGCAGAUACACUGUGAGAGAAAGGCUGCGGUGGUGGAAAUGCUGGACGAGUACUUUCUUCCUGUCCCACCCAUAAAUCCCAUAACACCCACCCCAAAAAGGUAGCAAUAGAGCCCCAGCCAACCACAGAAACUGGCGAGACAUGUUUAUCAUAUAUCCCAACGAAAGAAACAAUGAAUAUAAUGACCGAACAAACGUGUUGUACUAUAACCGUGGAAUCUGCUACCAAUGGCCAAAAGUCGUAAGGCUGAAGACGUGGAUUUCGCUGCAGAUGUUCGAGAAAUGUAUCUUGAUCCGUGUAAUUGUCUGGAUAUGAUUGCUUCACCCAUAGCAGCUUUUUCCAAGUAGUUUUCCGUCUUCUGGUGCUACUCUUCGUUCUAUCAGCAUGUCUUCCUCUACUUCUUAAUCGUCCAGCAUCUCCAUUUGUCAUGCGCAAUUGGUUGACAG
B4: GS2641: dsRNA trigger targeting B. cinerea Bcsec15 (XM_024692064.1); trigger SEQ ID NO 51, RNA 55, reverse complement 59 (nucleic acid, listed as Botrytis cinerea)
sense: CAAACAAUGGAGGGUUGGGGAUAUUCAGUUGCCAUAUUAGAUGCUUAUGUGCUUAAGCUUUUCUAUAGAUAUGCUGAUUUGUUAAAACGGAAAUUCAGCACAGAUUUUCAACAGAUUGUGUCUACCGAUGAAUACAUGCCUAUGCCUGUCAAUAGCGAAGAAGACUUUGAUAAAAUCAUUCAAGUCAGUUGGUAUGUUCCGGACAGACCGAAAGAAGAAUACACAUUCCCCGGUGUAUUACCAUUCUCCCAGAUGUACCCAAUGUGCUGUAUAGAUAUCAGAAAUUUCCUGAAUCGAUUCUACUUCAUAAUGGAUGAUCAUUUUCAACAGCCAAACAUUAUUGAUGAGACACUUAAGAAGUCGAUAGAUGAGCUUCUGUCUGAGGAUAUUU
antisense: AAAUAUCCUCAGACAGAAGCUCAUCUAUCGACUUCUUAAGUGUCUCAUCAAUAAUGUUUGGCUGUUGAAAAUGAUCAUCCAUUAUGAAGUAGAAUCGAUUCAGGAAAUUUCUGAUAUCUAUACAGCACAUUGGGUACAUCUGGGAGAAUGGUAAUACACCGGGGAAUGUGUAUUCUUCUUUCGGUCUGUCCGGAACAUACCAACUGACUUGAAUGAUUUUAUCAAAGUCUUCUUCGCUAUUGACAGGCAUAGGCAUGUAUUCAUCGGUAGACACAAUCUGUUGAAAAUCUGUGCUGAAUUUCCGUUUUAACAAAUCAGCAUAUCUAUAGAAAAGCUUAAGCACAUAAGCAUCUAAUAUGGCAACUGAAUAUCCCCAACCCUCCAUUGUUUG

How the values were obtained:
[1] = test system: Botrytis cinerea isolate (B05.10); assay: Detached leaf assay (tomato leaflets, lesion size); type: in vivo; settings: five days post inoculation, vs untreated inoculated control
Experimental: Plant tissue. Tomato plants, variety Brandywine, were grown in the greenhouse for 3 weeks before harvesting the first true leaves for assays. Nodes 2-4 were prioritized for harvest and only lateral leaflets were used for assays. Leaflets of approximately the same size were used each week and were randomized among treatments. Detached leaflets were immediately brought into the lab for treatment and used within 4 hours of harvest. Detached leaflets were kept at 4° C. until they were treated and placed onto a 1% water agar medium for incubation.
Fungal culture. A Botrytis cinerea isolate (B05.10) was preserved on silica for long-term storage and pulled from these tubes stored at 4° C. for growth on a nutritive medium. Three pellets of silica were added to the center of a Malt Extract Agar (MEA) agar plate and grown at room temperature without parafilm/tape seal for ˜14 days, or until abundant conidia formation, before use.
Treatment of leaflets. Leaflets were treated 24 hours before inoculation and applied using an atomizer to get a fine mist of small droplets entirely covering the leaflet. Silwet L-77 was used as a spreader and added for a 0.03% final concentration (Silwet L-77 brand Phyto Technology Laboratories, S7777 Lot #14D7777001 F). The inoculated control was sprayed with the same volume of sterile DI water with Silwet L-77 in the absence of fungicide or experimental material. Leaflets were spray treated by laying them on a paper towel and holding the atomizer ˜6″ away from the leaflet for applications. Treated leaves were placed on a 1% water agar (10 g Bacto Agar, Difco, in 1 L deionized water, sterilized for 30 minutes at 121° C. and poured when reached a temp of 55° C. into 100×20 mm Petri dishes), with lids of the Petri dishes placed back on before putting Petri dishes under plastic bags to maintain humidity before inoculation the following day. Petri dishes of treated leaflets were left on the lab counter until the following day. Each treatment was replicated ten times with each replicate being a single treated leaflet with two inoculation sites, one on each side of the leaf midvein.
Inoculation. The conidial suspension was prepared by pouring a 7% white grape juice solution onto the culture plate, then scraping the plate with a sterile spatula to dislodge the spores and mycelia. The grape juice solution was prepared by mixing Welch's brand organic white grape juice into sterile deionized water. After dislodging the spores and mycelia of the culture, the suspension was poured through two layers of cheesecloth to remove fungal mycelia and catch the conidial suspension in a clean 50 mL conical tube. Approximately 3 uL of TWEEN 20 was added to conidial suspension to prevent sticking to conical tube. The spore concentration was determined using a Neubauer Improved hemocytometer and inoculum was diluted with more 7% grape juice until a spore concentration of 1×10^5 conidia/mL was reached. Inoculum was used to inoculate host tissue within 2 hours of preparation. Each tomato leaflet was inoculated twice, with inoculation sites placed one per side of the leaflet midvein. A 10 μL volume of spore suspension was placed at each inoculation site using a repeater pipette. Special care was taken not to touch the tip to leaflet surface to avoid contamination between treatments.
Incubation. Petri dishes were placed on lunch trays 6 plates high and moved to an incubator. The incubator was humidity controlled and holds at ˜75% relative humidity. The incubator was kept on 12/12 light/dark days and is set to a temperature of 23° C.
Rating. Measurements were taken at five days post inoculation (DPI). Each lesion that developed was measured using electronic calipers in 2 directions perpendicular to each other to help determine lesion diameter.
Data analysis. Data was analyzed using the SAS JMP statistical program (version 13.2.1) with comparisons made to the untreated, inoculated control. […]

Botrytis cinerea conidia = assay: In vitro liquid-based assay (fungal biomass, 96-well plates, Cytation 5); type: cell-based; settings: co-incubated with conidia for three days, vs untreated control
Experimental: Fungal culture. The Botrytis cinerea was plated each week the culture onto Malt Extract Agar (MEA) from long-term storage on silica stored at 4° C. Three pellets of silica were added to the center of a MEA agar plate and grown at room temperature without parafilm/tape seal for 10-14 days before use; a culture 12 days old was typically used.
Spore and media preparation. A pure culture of B. cinerea was flooded with a 0.01% Triton x-100 solution and conidia scraped free with a sterile hockey stick. The suspension was transferred to two, 1.5 mL centrifuge tubes and centrifuged at 8000 rpm for two minutes. The supernatant was discarded, pelleted spores washed twice with sterile water, then resuspended in sterile water. Conidia were quantified using a hemacytometer and diluted to a final concentration of 5000 conidia/mL stock. A stock solution of 1.25× minimal media was prepared for the assay setup using the components below. Once the stock solution was made, the pH was adjusted to 6.0 using NaOH or KOH, then filter sterilized through a 0.2 um filter tower and vacuum pump and stored at 4° C. The Kao & Michayluk Vitamins (100×) is a filter sterilized stock solution. The stock contains vitamins and amino acids as described by Kao & Michayluk. After filter sterilization, 20 mg of 4-Aminobenzoic acid in 100 ml of solution was added.
Experimental setup. Screening assays were setup in 96-well plates with conidia co-incubated with treatments (controls and dsRNAs) for three days before determining fungal biomass. Each treatment was replicated eight times within a single plate. In each well consisted of 12.5 μl of conidia suspension, 25 μl of the treatment, 12.5 μl of sterile deionized water, and 200 μl of minimal media. Each plate was covered with a breath right film and placed in the percival growth chamber at 23° C. on the shaking platform set to 120 RPM with 24-hour lighting. Plates were incubated for 72 hours before determining fungal growth.
Reading assay plate. Fungal biomass was determined by reading plates with the Cytation 5 machine. The program was set to compile 8 photo slices per well under brightfield microscopy with a 2.5× lens to measure biomass.
Data analysis. Analysis will automatically run on Cytation5 to determine final biomass.
Results are shown in Table 1B representing the average reduction in biomass vs. control for tested sequences across several runs described above.

| Molecule | Average % Reduction in Lesion Size ([1]; 30 ppm) [%] | Average % Reduction in Lesion Size ([1]; 50 ppm) [%] | Average % Reduction in Biomass (Botrytis cinerea conidia; 25 ppm dsRNA) [%] | Average % Reduction in Biomass (Botrytis cinerea conidia; 150 ppm dsRNA) [%] |
| --- | --- | --- | --- | --- |
| B1 | 19.63 | 22.76 | 24 | 54 |
| B2 | – | – | 20 | 39 |
| B3 | 28.77 | 46.11 | 5 | 24 |
| B4 | 15.75 | 30.49 | 14 | 37 |
